According to PMC11529724:

Target: microtubules assembled from porcine brain tubulin (porcine) (UniProt P02550)
Sequence (P02550 whole entry, chain 1 of 2): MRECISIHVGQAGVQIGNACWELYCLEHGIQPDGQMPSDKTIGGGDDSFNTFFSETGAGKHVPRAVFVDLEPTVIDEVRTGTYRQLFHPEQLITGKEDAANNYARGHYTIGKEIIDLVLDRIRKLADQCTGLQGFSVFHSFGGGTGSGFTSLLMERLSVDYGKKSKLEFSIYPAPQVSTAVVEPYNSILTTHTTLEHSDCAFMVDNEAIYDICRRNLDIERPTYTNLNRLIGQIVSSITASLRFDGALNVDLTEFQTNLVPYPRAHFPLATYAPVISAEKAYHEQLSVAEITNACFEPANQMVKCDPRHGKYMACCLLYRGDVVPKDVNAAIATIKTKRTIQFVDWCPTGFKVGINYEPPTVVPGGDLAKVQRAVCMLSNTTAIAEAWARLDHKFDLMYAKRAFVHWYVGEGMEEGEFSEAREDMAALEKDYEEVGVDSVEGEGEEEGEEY
Sequence (P02554 whole entry, chain 2 of 2, further chain): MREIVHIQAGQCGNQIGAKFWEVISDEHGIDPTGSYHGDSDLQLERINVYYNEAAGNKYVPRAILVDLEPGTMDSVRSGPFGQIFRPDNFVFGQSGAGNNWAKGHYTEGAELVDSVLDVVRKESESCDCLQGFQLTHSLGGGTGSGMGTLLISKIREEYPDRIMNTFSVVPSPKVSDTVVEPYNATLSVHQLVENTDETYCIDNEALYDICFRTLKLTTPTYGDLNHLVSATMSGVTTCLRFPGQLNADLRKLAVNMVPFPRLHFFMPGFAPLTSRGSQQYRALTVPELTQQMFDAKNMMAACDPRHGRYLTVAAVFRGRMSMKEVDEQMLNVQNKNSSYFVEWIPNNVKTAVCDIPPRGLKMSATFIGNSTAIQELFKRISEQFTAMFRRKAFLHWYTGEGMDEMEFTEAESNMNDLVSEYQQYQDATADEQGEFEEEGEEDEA

| glutamylation activity with taxol-stabilized MTs, normalized to WT | glutamylation activity with taxol-stabilized MTs, decrease against WT | Substance |
| --- | --- | --- |
| 55 % of WT |  | TTLL6 with R403 and R407 mutated to alanine (from UniProt A4Q9E8 51-502) (enzyme) |
|  | 47 % decrease | TTLL6 with R415 and R418 mutated to alanine (from UniProt A4Q9E8 51-502) (enzyme) |
